We go through two molecules from patent US20230220589A1.

Experiment [1] deals with M44-modified A NTAA target peptides (M44-A-P2-peptide). Briefly: Gini coefficient of P2 tolerance from multiplex encoding heatmap.
Experiment [2] addresses M17-modified W NTAA target peptides. Put plainly: encoding assay; P2 S.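 Also: fraction of recording tags encoded.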

B1: engineered M44-A binder (SEQ ID NO: 42) (designed binder, not shown: small tags and cut ends; large carriers)
chain: QVSVQPNFQQDKFLGRWFVAGLASNSSWDREKVAALSGAKMVVAPATDGGLNVTRTMLRKNQCETYTGLLQPAGSLGSYSWRSPHPGSTGSESVVETDYDQYALVYGQGSKGPGEDLRAAALWSRTQTPRAELKEKFTAFSKAQGFTEDTIVFLPQTDKCMTEQ
Molecule B1 had a P2 score in experiment [1] of 0.376.

B2: upgraded binder after additional maturation round (SEQ ID NO: 62) (designed binder, not shown: small tags and cut ends; large carriers)
chain: TVPDRSEIAGKWYVVALASNTEFYLRGKDRVKSAMVRISFQGEDELKVSSAVPSPNGCYKVERTWKKTSDDGEVYNSRAAKLKVEVLDTDYKSYAVIYATRVKDRRTDHQMILYSRSPDVSPAATAIFRKLAGERNYTDEMVAMLPRQEECTVDEV
In experiment [2], B2 gave an encoding yield of 0.03.
